In US20220098305A1 (Hoffmann-La Roche, published 2022):

T1: human ICOS (human, UniProt Q9Y6W8 21-199)
T1 construct: The cell that carries it is named under assay; also called huICOS; CD278
T1 sequence: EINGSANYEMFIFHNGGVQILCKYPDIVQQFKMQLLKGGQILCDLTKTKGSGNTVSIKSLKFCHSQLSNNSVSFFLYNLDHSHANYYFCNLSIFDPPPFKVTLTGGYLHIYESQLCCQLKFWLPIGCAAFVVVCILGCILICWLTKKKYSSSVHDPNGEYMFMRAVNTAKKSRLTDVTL


How the values were obtained:
[1] = target: T2, recombinant monomeric human ICOS Fc(kih) Avi tag (human, UniProt P0DOX5 223-449 = IgG part, biotin on the Avi tag in the ligand-blocking and the SPR competition assays); experiment: SPR competition on human ICOS Fc(kih); second injection 100 nM; competitor (row): Molecule 8
T2 construct: also called recombinant human ICOS; biotinylated human ICOS Fc(kih)
Method: (§1) Immobilization levels up to 600 resonance units (RU) were used. […] Bulk refractive index differences were corrected for by subtracting the response obtained on reference flow cell.
(§2) The SPR experiments were performed on a Biacore T200 at 25° C. with HBS-EP as running buffer (0.01 M HEPES pH 7.4, 0.15 M NaCl, 3 mM EDTA, 0.005% Surfactant P20, Biacore, Freiburg/Germany).

[2] = target: T2, recombinant monomeric human ICOS …; experiment: SPR (Biacore T200, 25 C), antibody captured on anti-mouse IgG, ICOS Fc(kih) 7.5-600 nM as analyte, 1:1 Langmuir fit
Method: (§3) All SPR experiments were performed on a Biacore T200 at 25° C. with HBS-EP as running buffer (0.01 M HEPES pH 7.4, 0.15 M NaCl, 3 mM EDTA, 0.005% Surfactant P20, Biacore, Freiburg/Germany).
(§4) Setup 2: Anti-mouse IgG antibody (GE Healthcare, Chicago/US) was directly coupled on a CM5 chip at pH 5.0 using the standard amine coupling kit (Biacore, Freiburg/Germany). The immobilization level was approximately 5000 RU. […] The dissociation was monitored for 720 seconds. Bulk refractive index differences were corrected for by subtracting the response obtained on reference flow cell.

human ICOS [3] = target: T1, human ICOS; experiment: flow cytometry on SR cells expressing human ICOS, PE-labelled secondary antibody, MFI
Method: (§5) Briefly, suspension cells were harvested, counted, checked for viability and re-suspended at 1 million cells per ml in FACS buffer (PBS with 0.1% BSA). […] The staining was fixed for 20 min at 4° C. in the dark, using 75 μl of 1% PFA in FACS buffer per well.
(§6) In addition, binding of the above molecules to human SR cells (ATCC® CRL-2262) was performed as described above apart from the following modifications: SR cells were re-suspended at 2 million cells per ml in FACS buffer (BD).
(§7) Fluorescence was analyzed by FACS using a FACS Fortessa (Software FACS Diva). Binding curves and EC50 values were obtained using GraphPadPrism 7.

human ICOS [4] = target: T1, human ICOS; experiment: flow cytometry, CHO cells expressing human ICOS
Method: as §5, §7

[5] = target: T2, recombinant monomeric human ICOS …; experiment: SPR competition on human ICOS Fc(kih); second injection 100 nM; competitor (row): Molecule 20
Method: as §1, §2

human ICOS [6] = target: T1, human ICOS; experiment: flow cytometry, SR cells
Method: as §5, §6, §7

human ICOS [7] = target: T1, human ICOS; experiment: flow cytometry on CHO cells stably expressing human ICOS, PE-labelled secondary antibody, median fluorescence intensity (MFI)
Method: as §5, §7

human ICOS [8] = target: T1, human ICOS; experiment: cell-based or functional assay
human ICOS [9] = target: T1, human ICOS; experiment: flow cytometry, ICOS+ CHO cells, 120 nM anti-ICOS IgG pre-bound, then ICOSL (competitor) 120 nM
Method: (§8) Briefly, cells were harvested, counted, checked for viability and re-suspended at 1 million cells per ml in FACS buffer (PBS with 0.1% BSA). […] Cells were washed again twice with cold PBS 0.1% BSA and then re-incubated and fixed for 20 min at 4° C. in the dark, using 75 μl of 1% PFA in FACS buffer per well. Fluorescence was analyzed by FACS using a FACS Fortessa (Software FACS Diva. Data was analyzed using GraphPadPrism 7.

human ICOS [10] = target: T1, human ICOS; experiment: flow cytometry, MFI(ICOSL+anti-ICOS)/MFI(anti-ICOS only)*100 at 120 nM; competitor ICOSL
Method: as §8

human ICOS [11] = target: T1, human ICOS; experiment: flow cytometry, ICOS+ CHO cells, 120 nM anti-ICOS IgG, no ICOSL
Method: as §8

[12] = target: T2, recombinant monomeric human ICOS …; experiment: SPR competition on human ICOS Fc(kih); second injection 100 nM; competitor (row): Molecule 18
Method: as §1, §2

[13] = target: T2, recombinant monomeric human ICOS …; experiment: SPR competition on human ICOS Fc(kih); second injection 100 nM; competitor (row): Molecule 14
Method: as §1, §2

[14] = target: T2, recombinant monomeric human ICOS …; experiment: SPR (Biacore T200, 25 C), antibody captured on anti-rabbit Fc, ICOS Fc(kih) 7.5-600 nM as analyte, 1:1 Langmuir fit
Method: as §3
as §4, with “1: Anti-rabbit Fc” for “2: Anti-mouse IgG”, “(Jackson ImmunoResearch, Cambridgeshire/UK)” for “(GE Healthcare, Chicago/US)”, “4.5” for “5.0”, “9000” for “5000”

human ICOS [15] = target: T1, human ICOS; experiment: flow cytometry, SR cells; remark: listed apart in the source
human FAP [16] = target: T3, human FAP (human, UniProt Q12884 1-760); experiment: flow cytometry on NIH/3T3-huFAP clone 19 cells, geometric MFI
T3 construct: also called hu FAP

human FAP [17] = target: T3, human FAP; experiment: flow cytometry, NIH/3T3-huFAP clone 19 cells
human ICOS [18] = target: T1, human ICOS; experiment: flow cytometry on SR cells expressing human ICOS, geometric MFI

Row | binding of the second injection (0 = no binding; 1 = binding) [1] | EC50 (read off the curve) (human ICOS [3]) [nM] | EC50 (human ICOS [4]) [pM] | binding of the second injection (0 = no binding; 1 = binding) [5] | EC50 (human ICOS [6]) [pM] | EC50 (read off the curve) (human ICOS [7]) [nM] | EC50 of activation of Jurkat-NFAT reporter cell line (luminescence) (human ICOS [8]) [nM] | MFI (A488), IgG + ICOSL (human ICOS [9]) [MFI] | Relative Binding (%) (human ICOS [10]) | MFI (A488), IgG only (human ICOS [11]) [MFI] | also measured | Binder
1 | 0 | ~1 | 2.97 | 0 | 1.4 | ~3 | 0.08 | 7000 | 97.3 | 7190 | Kd [2]: 2 nM; koff [2]: 0.00014 s⁻¹; kon [2]: 61000 M⁻¹ s⁻¹; t1/2 [2]: 81.6 min; binding of the second injection (0 = no binding; 1 = binding) [12]: 1 | Molecule 14 (muIgG of 009) (antibody, V domains shown, Mouse IgG purified from hybridoma; also called ICOS (009); clone 009) VH: EVRLDETGGGVVQPGRPMELSCVASGFTFSDYWMNWVRQSPEKGLEWVAQIRNKPYNYETYYSDSVKGRFTISRDDSKSRVYLQMNNLRAEDMGIYYCTWPRLRSSDWHFDVWGAGTTVTVSS VL: AIQMTQSPSSLSASLGGEVTITCKASQDINKNIAWYQHKPGRGPRLLIWYTSTLQTGIPSRFSGSGSGRDYSFTISNLEPEDFATYYCLQFDNLYTFGSGTKLEIR
2 | 1 | ~2 | 1.92 | 1 | 2.16 | ~2 | 0.09 | 6210 | 98.2 | 6320 | binding of the second injection (0 = no binding; 1 = binding) [13]: 1; Kd [14]: 0.7 nM; koff [14]: 0.00026 s⁻¹; kon [14]: 400000 M⁻¹ s⁻¹; t1/2 [14]: 43.7 min | Molecule 18 (rbIgG of 1138) (antibody, V domains shown, Rabbit IgG format; also called ICOS (1138); clone 1138) VH: QSLEESGGDLVKPGASLTLTCTASGFDLSSYYYMCWVRQAPGKGLEWIACIYADIYGGTTHYASWAKGRFTISKTSSTTVTLQMTSLTAADTATYFCAREDGSRYGGSGYYNLWGPGTLVTVSS VL: ALVMTQTPSSVSAAVGGTVTINCQASQNIYSNLAWYQQKPGQPPKLLIYAASYLTSGVSSRFKGSGAGTQFTLTISGVECADAATYYCQQGHTTDNIDNAFGGGTEVVVKG
3 | – | – | – | – | – | – | – | – | – | – | EC50 (human ICOS [15]): 1.74 pM; EC50 (read off the curve) (human FAP [16]): ~4 nM; EC50 (human FAP [17]): 3.85 pM; EC50 (read off the curve) (human ICOS [18]): ~2 nM | Molecule 40, bispecific 2+1 anti-ICOS (009)/anti-FAP (4B9) huIgG1 P329GLALA kih (bispecific antibody) heavy 1: EVRLDETGGGVVQPGRPMELSCVASGFTFSDYWMNWVRQSPEKGLEWVAQIRNKPYNYETYYSDSVKGRFTISRDDSKSRVYLQMNNLRAEDMGIYYCTWPRLRSSDWHFDVWGAGTTVTVSSASTKGPSVFPLAPSSKSTSGGTAALGCLVKDYFPEPVTVSWNSGALTSGVHTFPAVLQSSGLYSLSSVVTVPSSSLGTQTYICNVNHKPSNTKVDKKVEPKSCDKTHTCPPCPAPEAAGGPSVFLFPPKPKDTLMISRTPEVTCVVVDVSHEDPEVKFNWYVDGVEVHNAKTKPREEQYNSTYRVVSVLTVLHQDWLNGKEYKCKVSNKALGAPIEKTISKAKGQPREPQVCTLPPSRDELTKNQVSLSCAVKGFYPSDIAVEWESNGQPENNYKTTPPVLDSDGSFFLVSKLTVDKSRWQQGNVFSCSVMHEALHNHYTQKSLSLSPGGGGGSGGGGSGGGGSGGGGSEIVLTQSPGTLSLSPGERATLSCRASQSVTSSYLAWYQQKPGQAPRLLINVGSRRATGIPDRFSGSGSGTDFTLTISRLEPEDFAVYYCQQGIMLPPTFGQGTKVEIK heavy 2: not shown light: AIQMTQSPSSLSASLGGEVTITCKASQDINKNIAWYQHKPGRGPRLLIWYTSTLQTGIPSRFSGSGSGRDYSFTISNLEPEDFATYYCLQFDNLYTFGSGTKLEIRRTVAAPSVFIFPPSDEQLKSGTASVVCLLNNFYPREAKVQWKVDNALQSGNSQESVTEQDSKDSTYSLSSTLTLSKADYEKHKVYACEVTHQGLSSPVTKSFNRGEC
